In patent publication US20060003399A1, “High throughput actin polymerization assay” (Cytokinetics, Inc., priority 2004, published 2006):

How the values were obtained:
actin = molecular target: T1, actin (Gallus gallus, UniProt P68139); experiment: Formin nucleated actin/pyrene-actin polymerization assay; assay type: biochemical, chicken
T1 construct: from tissue
Procedure: G-Actin: Typically chicken actin was used. G-actin can be purchased from Cytoskeleton, Inc. It can also be purified according to Pardee and Spudich (1982) Methods of Cell Biol. 24:271-89, and subsequently gel filtered as discussed by MacLean-Fletcher and Pollard (1980) Biochem Biophys. Res. Commun. 96:18-27.
Acrylodan-Actin and Pyrene-Actin: Typically chicken actin was utilized. Pyrene labeled actin was prepared according to methods described in Kouyama and Mihashi (1981) Eur. J. Biochem. 114:33-38 or as described by Cooper et al. (1983) J. Muscle Res. Cell Motility 4:253-62. Alternatively, it can be purchased from Cytoskeleton, Inc. Acrylodan-labeled actin was prepared by modification of the pyrene-labeling protocol described in Cooper et al. (1983) J. Muscle Res. Cell Motility 4:253-62.
G-actin and pyrene-actin were prepared as described in Example 7.
Activity of purified formins from the constructs described above in Example 12 was assessed in an actin/pyrene-actin polymerization assay. Polymerization was carried out in G-buffer and was initiated by addition of 10× polymerization mix.
Gel filtered actin and pyrene-actin were diluted in G-buffer to the indicated final concentrations. Either purified C. albicans formin domains or formin domain-enriched fractions were added together with polymerization mix to start actin polymerization. Formin nucleated actin polymerization was monitored on a Gemini plate reader (excitation at 365 nm and emission at 407 nm). Protein components in the actin polymerization assay are provided below.

[1] = Storage stability of purified formin proteins at -80 C; assay type: physicochemical; details: storage at −80° C.
Procedure: The formins were purified on either Ni-NTA column (His6 tagged proteins) or Gluthatione-Sepharose (GST tagged proteins). Resins were equilibrated with lysis buffer. Clear crude extracts were loaded onto column, columns were washed with lysis buffer followed by washing buffer (50 mM Tris pH 8.0, 50 mM KCl, 1 mM DTT, 1 mM MgCl, 3% glycerol), and proteins were eluted with either 300 mM imidazole (His6-tagged proteins) or 10 mM glutathione (GS-tagged proteins). Eluted proteins were analyzed by SDS PAGE (4-20%) (Invitrogen, San Diego Calif.), fractions were pooled and protein concentrations were measured by Coomassie Plus (Bradford)(Bio-Rad, Hercules, Calif.). Purified proteins were “drop-frozen” in liquid nitrogen and stored at −80° C.

Arp2/3 complex = molecular target: T2, Arp2/3 complex; experiment: Actin polymerization assay comparing FL-WASP/N-WASP and truncated forms of WASP; assay type: biochemical, human; details: without activators, FIG. 7
T2 construct: from tissue
Procedure: 1. A cellular extract containing Arp2/3 complex was prepared from an Arp2/3 source such as human platelets (see, e.g., U.S. Provisional Application No. 60/578,969, filed Jun. 10, 2004; Welch and Mitchison (Meth. Enzymology 298:52-61,1988); and Higgs, H. N. et al. (Biochemistry 38:15212-15222, 1999), all of which are incorporated herein by reference in their entirety for all purposes).
Samples containing candidate agents (individually or as mixtures) are placed into wells on a multi-well plate. Mix 1 is added to each of the wells and mixed with the candidate agent. A sample of Mix 2 is then introduced into each well and the resulting mixture thoroughly mixed. Typically, Mix 1 and Mix 2 are mixed in 1:1 ratio (e.g., 50 μl each of Mix 1 and Mix 2).
Actin polymerization is measured as a function of time by exciting pyrene at 365 nm and by detecting an increase in fluorescence emission at 407 nm, or by exciting acrylodan at 405 nm and by detecting an increase in fluorescence emission at 460 nm. The change in fluorescence over time is utilized to determine a fluorescence parameter (e.g., maximal velocity, time to half maximal fluorescence intensity, or area under the curve of a plot of fluorescence versus time; see e.g., FIGS. 5A-5F).
Arp2/3 was purified as described in Example 1. […]

Arp2/3 = experiment: Activities of WASP/N-WASP proteins (Table 4); assay type: biochemical
Text: The term “variant” or “analogue” generally refers to proteins that are functional equivalents to a native sequence that have similar amino acid sequences and retain, to some extent, one of the activities of the corresponding native protein. Variants/analogues include fragments that retain one or more activities of the corresponding native protein. Examples of WASP and N-WASP activity include, but are not limited to, capacity to: 1) bind Arp2/3 and actin; 2) activate the actin nucleation activity of Arp2/3 (descriptions of assays to detect nucleation activity are provided below); 3) bind an upstream regulator; 4) be regulated by one or more upstream regulators, thereby rendering the WASP or N-WASP protein able to activate the nucleation activity of Arp2/3; and 5) bind downstream regulators initiating signal transduction cascades. Some of the WASP and N-WASP proteins that are provided are able to recapitulate the full activity of WASP or N-WASP, which means that these proteins have all five of the activities just listed. […]
A third class of NPF proteins that can be utilized in some assays include WASP, N-WASP and SCAR proteins that include the WH1 domain but in which the PolyPro region is (e.g., deleted). A fourth class of NPF proteins that can be utilized in some assays are WASP, N-WASP and SCAR deletion mutants in which the PolyPro region is maintained but an N-terminal region (e.g., WH1 domain) is at least partially removed. Some proteins in this class are ones that include the B, CRIB/GBD (WASP and N-WASP), PolyPro and VCA domains, but in which some or all of the WH1 has been removed. One specific example is 98N-WASP, which includes amino acids 98-501 of SEQ ID NO:4. Another specific example is the 105WASP protein, which includes amino acids 105-501 of SEQ ID NO:2 (see FIG. 4B).
As indicated in this table, specific examples of fusion proteins that can be utilized include those that include a segment that encodes full-length WASP or N-WASP, including: Myc-WASP-TAP (SEQ ID NO:14); and Myc-N-WASP-TAP (SEQ ID NO: 16). Examples of fusion proteins that include a WASP or N-WASP deletion mutant domain include: GST-105WASP (SEQ ID NO:18); Myc-105WASP-TAP (SEQ ID NO:20); GST-tev-98N-WASP (SEQ ID NO:22); and Myc-98N-WASP-TAP (SEQ ID NO:24). The TAP tag in these particular fusion proteins has the general structure CBP-tev-ProtA (SEQ ID NO:36). Fusion proteins such as those listed in Table 4 can in some instances be utilized directly, or after one or both of the C- and N-terminal tags are removed. For example, the fusion proteins listed in Table 4 as having a TAP tag can be used once the TAP tag has been cleaved off and/or after the C-terminal tag has been removed.

[2] = Solubility of purified full-length WASP / N-WASP; assay type: physicochemical; details: purified TAP-tag protein from 293 cells

| Molecule | biochemical properties compared with the other formin constructs (in words) (actin) | lag phase (actin; 100 nM formin) | time to reach saturation phase (actin; 100 nM formin) | activity relative to the formin purified in the single step purification (actin; after further purification on SP Sepharose) | time stable at −80° C. [1] | stimulation of actin polymerization by the protein alone (in words) (Arp2/3 complex) | Activate Arp2/3? (Arp2/3) | Regulated By Which Upstream Regulators? (Arp2/3) | solubility (in words) [2] |
| --- | --- | --- | --- | --- | --- | --- | --- | --- | --- |
| GST tagged C. albicans FH1-FH2 domain: C. albicans FOR1 M972 to K1598 (FH1 and FH2 domains), N-terminally tagged with GST-TEV (protein, left off: a dimerising Fc or GST, C. albicans FOR1 M972 to K1598 (FH1 and FH2 domains), N-terminally tagged with GST-TEV) MDPKFLQELSLKVGKAEPIQDANNKNQFGGPLSSSPEDVSQKHKTSGDSSDKDKVLSSPISSNDIKSPETGNSTTSSAAPPPPPPPPPPPPPPLPPILGGNNSSAAPPPPPPPPPPPAFLNGSGSVIPPAPPLPPPSSGRSSRSVPSTVTKSSGSAFDKIPRPKKKLKQLHWEKIDHSQVGNSFWNDPNTHTLVDDLMSKGIFDEIELIFAAKEAKKLATKKKEDLDKVTFLARDISQQFSINLHAFNSFSDEEFVLKVLRCDKDVLTNPAVLDFFGKEDIVEITNTLARNFEPYSTDYKTEEITKPEKDPNELQRPDRIYLELMYNLQHYWKSRTRALNVVVNYDKDVYEYVKKLRLIDEAVDSIKNSKHLKGVFEIILAVGNYMNDSAKQAHGFKLSSLQRLSFMKDEKNSMTFLHYVEKVIRTQYPEFLEFINELSCCNEITKFSIENINNDCKEYARAIKNVQSSIDIGNLSDVSKFHPSDRVLKAVLPALPRAKRKAELLLDQANYTMKEFDDLMKYFGEDPTDQFVKNSFISKFTDFMKDFKRVQAENIKREEELRVYEQRKKLLEKPKSSNNGDSNASDQDGESNEGDGGVMDSLLQRLKAAAPTKGESASARKKALMRK | best biochemical properties in terms of solubility, stability and activity | less than 100 s | 400 s | approximately 3 fold | more than 6 months |  |  |  |  |
| FL-N-WASP: full length human N-WASP (SEQ ID NO:4), nucleation promoting factor (protein, listed as Homo sapiens, (1)..(505) FL-N-WASP) MSSVQQQPPPPRRVTNVGSLLLTPQENESLFTFLGKKCVTMSSAVVQLYAADRNCMWSKKCSGVACLVKDNPQRSYFLRIFDIKDGKLLWEQELYNNFVYNSPRGYFHTFAGDTCQVALNFANEEEAKKFRKAVTDLLGRRQRKSEKRRDPPNGPNLPMATVDIKNPEITTNRFYGPQVNNISHTKEKKKGKAKKKRLTKADIGTPSNFQHIGHVGWDPNTGFDLNNLDPELKNLFDMCGISEAQLKDRETSKVIYDFIEKTGGVEAVKNELRRQAPPPPPPSRGGPPPPPPPPHNSGPPPPPARGRGAPPPPPSRAPTAAPPPPPPSRPSVAVPPPPPNRMYPPPPPALPSSAPSGPPPPPPSVLGVGPVAPPPPPPPPPPPGPPPPPGLPSDGDHQVPTTAGNKAALLDQIREGAQLKKVEQNSRPVSCSGRDALLDQIRQGIQLKSVADGQESTPPTPAPTSGIVGALMEVMQKRSKAIHSSDEDEDEDDEEDFEDDDEWED |  |  |  |  |  | weakly stimulate actin polymerization | Yes | Cdc42, PIP2, Nck, Rac1 | completely soluble |
